Data published in US20260217846A1 (University of Texas, published 2026).

B1: Clone 138 4-1BB antibody (IgG2b) (antibody, V domains shown)
VH: VQLQESGGGLVKPGGSLKLSCAASGFTFSDYGMHWVRQAPEKGLEWVAYISSGSNSIYYADTVTGRFTISRDNAKNTLFLQMTSLRSEDTAMYYCASNNGYFYFDYWGQGTTLTVSS
VL: IVITQSPAILSASPGEKVTMTCRASSSVSYMHWYQQKPGSSPKPWIYATSNLASGVPARFSGSGSGTSYSLTVSRVEAEDAATYYCQQWSSDPFTFGSGTKLEIK
notes: Mouse hybridoma antibody, IgG2b
B2: Clone 54 4-1BB antibody (IgG2a) (antibody, V domains shown)
VH: EFQLQQSGPELVKPGASVKISCKASGYSFTDYNMNWVKQSNGKSLEWIGVINPNYGTTSYNQKFKGKATFTVDQSSSTAYMQLNSLTSEDSAVYYCARSPVEDYFDYWGQGTTLTVSS
VL: ENVLTQSPAIMSASPGEKVTMTCRARSSVSSSYLHWYQQKSGASPKLWIYSTSNLASGVPARFSGSGSGTSYSLTISSVEAEDAATYYCQQYSGYPLITFGAGTKLELKR
notes: Mouse hybridoma antibody, IgG2a; also called Curranlumab; hybridoma clone 271-54 41-BB
B3: Clone 49A 4-1BB antibody (IgG1) (antibody, V domains shown)
VH: VKLQQSGPELVKPGASVKISCKASGYTFTDYYMNWVKESHGKSLEWIGDINPNNGGSTYYNQKFKGKATLTVEKSSSTAFMELRSLTSEDSAVYYCARSLYGSTYYFDYWGQGTPLTVSS
VL: DIVLTQSPASLAVSLGQRATISCKASQSVDYDGDSYMNWYQQKPGQPPKLLIYAASNLESGIPARFSGSGSGTDFTLNIHPVEEEDAGTYYCQQSNDDPWTFGGGTKLEIK
notes: Mouse hybridoma antibody, IgG1

What follows are binders tested against T1, recombinant human 4-1BB (human, UniProt Q07011 24-186, limits assumed) (assay: ELISA titration on recombinant human 4-1BB).
T1 construct: The ELISA antigen is called only 'recombinant human 4-1BB'; also called CD137; TNFSFR

binding result	Binder
binds	B1
binds	B2
binds	B3
